Results from patent US20260049138A1 (Chugai, published 2026).

Target: T1, CD3ε homodimer protein (human, UniProt P07766 23-126, limits assumed)
T1 construct: also called CD3 (CD3ε)
Assay: SPR Biacore T200, CD3ε homodimer on chip;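 note: Light-chain single-residue variant antibodies injected over amine-coupled CD3ε homodimer on a CM4 chip at 25 °C, bound amount divided by that of the GLS3000-containing antibody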

T1 sequence (P07766 23-126 limits assumed): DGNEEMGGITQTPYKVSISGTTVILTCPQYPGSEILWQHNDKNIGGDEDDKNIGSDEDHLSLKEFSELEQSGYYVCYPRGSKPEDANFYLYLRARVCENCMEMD

| Binder | ratio of amount bound vs unaltered GLS3000 |
| --- | --- |
| GLS3000 G91E one-arm antibody (antibody, human IgG1, kappa, L234A L235A, N297A, name in Kabat numbering) heavy: QVQLVESGGGVVQPGRSLRLSCAASGFTFSNAWMHWVRQAPGKGLEWVAQIKAKSNNYATYYAESVKGRFTISRDDSKNSLYLQMNSLKTEDTAVYYCRYVHYGAYYGVDAWGQGTTVTVSSASTKGPSVFPLAPSSKSTSGGTAALGCLVKDYFPEPVTVSWNSGALTSGVHTFPAVLQSSGLYSLSSVVTVPSSSLGTQTYICNVNHKPSNTKVDKKVEPKSCDKTHTCPPCPAPEAAGGPSVFLFPPKPKDTLMISRTPEVTCVVVDVSHEDPEVKFNWYVDGVEVHNAKTKPREEQYASTYRVVSVLTVLHQDWLNGKEYKCKVSNKALPAPIEKTISKAKGQPREPQVYTLPPSRCELTKNQVSLSCAVKGFYPSDIAVEWESNGQPENNYKTTPPVLDSDGSFFLVSKLTVDKSRWQQGNVFSCSVMHEALHNHYTQKSLSLSPDYKDDDDK EPKSSDKTHTCPPCPAPELLGGPSVFLFPPKPKDTLMISRTPEVTCVVVDVSHEDPEVKFNWYVDGVEVHNAKTKPREEQYNSTYRVVSVLTVLHQDWLNGKEYKCKVSNKALPAPIEKTISKAKGQPREPQVCTLPPSRDELTKNQVSLWCLVKGFYPSDIAVEWESNGQPENNYKTTPPVLDSDGSFFLYSKLTVDKSRWQQGNVFSCSVMHEALHNRYTQKSLSLSP light: DIVMTQSPLSLPVTPGEPASISCRSSQSLVHSNRNTYLHWYQQKPGQAPRLLIYKVSNRFSGVPDRFSGSGSGTDFTLKISRVEAEDVGVYYCGQETQVPYTFGQGTKLEIKRTVAAPSVFIFPPSDEQLKSGTASVVCLLNNFYPREAKVQWKVDNALQSGNSQESVTEQDSKDSTYSLSSTLTLSKADYEKHKVYACEVTHQGLSSPVTKSFNRGEC | 0.16 |
| GLS3000 G91Y one-arm antibody (antibody, human IgG1, kappa, L234A L235A, N297A, name in Kabat numbering) heavy: QVQLVESGGGVVQPGRSLRLSCAASGFTFSNAWMHWVRQAPGKGLEWVAQIKAKSNNYATYYAESVKGRFTISRDDSKNSLYLQMNSLKTEDTAVYYCRYVHYGAYYGVDAWGQGTTVTVSSASTKGPSVFPLAPSSKSTSGGTAALGCLVKDYFPEPVTVSWNSGALTSGVHTFPAVLQSSGLYSLSSVVTVPSSSLGTQTYICNVNHKPSNTKVDKKVEPKSCDKTHTCPPCPAPEAAGGPSVFLFPPKPKDTLMISRTPEVTCVVVDVSHEDPEVKFNWYVDGVEVHNAKTKPREEQYASTYRVVSVLTVLHQDWLNGKEYKCKVSNKALPAPIEKTISKAKGQPREPQVYTLPPSRCELTKNQVSLSCAVKGFYPSDIAVEWESNGQPENNYKTTPPVLDSDGSFFLVSKLTVDKSRWQQGNVFSCSVMHEALHNHYTQKSLSLSPDYKDDDDK EPKSSDKTHTCPPCPAPELLGGPSVFLFPPKPKDTLMISRTPEVTCVVVDVSHEDPEVKFNWYVDGVEVHNAKTKPREEQYNSTYRVVSVLTVLHQDWLNGKEYKCKVSNKALPAPIEKTISKAKGQPREPQVCTLPPSRDELTKNQVSLWCLVKGFYPSDIAVEWESNGQPENNYKTTPPVLDSDGSFFLYSKLTVDKSRWQQGNVFSCSVMHEALHNRYTQKSLSLSP light: DIVMTQSPLSLPVTPGEPASISCRSSQSLVHSNRNTYLHWYQQKPGQAPRLLIYKVSNRFSGVPDRFSGSGSGTDFTLKISRVEAEDVGVYYCGQYTQVPYTFGQGTKLEIKRTVAAPSVFIFPPSDEQLKSGTASVVCLLNNFYPREAKVQWKVDNALQSGNSQESVTEQDSKDSTYSLSSTLTLSKADYEKHKVYACEVTHQGLSSPVTKSFNRGEC | 0.17 |
| GLS3000 H27dD one-arm antibody (antibody, human IgG1, kappa, L234A L235A, N297A, name in Kabat numbering) heavy: QVQLVESGGGVVQPGRSLRLSCAASGFTFSNAWMHWVRQAPGKGLEWVAQIKAKSNNYATYYAESVKGRFTISRDDSKNSLYLQMNSLKTEDTAVYYCRYVHYGAYYGVDAWGQGTTVTVSSASTKGPSVFPLAPSSKSTSGGTAALGCLVKDYFPEPVTVSWNSGALTSGVHTFPAVLQSSGLYSLSSVVTVPSSSLGTQTYICNVNHKPSNTKVDKKVEPKSCDKTHTCPPCPAPEAAGGPSVFLFPPKPKDTLMISRTPEVTCVVVDVSHEDPEVKFNWYVDGVEVHNAKTKPREEQYASTYRVVSVLTVLHQDWLNGKEYKCKVSNKALPAPIEKTISKAKGQPREPQVYTLPPSRCELTKNQVSLSCAVKGFYPSDIAVEWESNGQPENNYKTTPPVLDSDGSFFLVSKLTVDKSRWQQGNVFSCSVMHEALHNHYTQKSLSLSPDYKDDDDK EPKSSDKTHTCPPCPAPELLGGPSVFLFPPKPKDTLMISRTPEVTCVVVDVSHEDPEVKFNWYVDGVEVHNAKTKPREEQYNSTYRVVSVLTVLHQDWLNGKEYKCKVSNKALPAPIEKTISKAKGQPREPQVCTLPPSRDELTKNQVSLWCLVKGFYPSDIAVEWESNGQPENNYKTTPPVLDSDGSFFLYSKLTVDKSRWQQGNVFSCSVMHEALHNRYTQKSLSLSP light: DIVMTQSPLSLPVTPGEPASISCRSSQSLVDSNRNTYLHWYQQKPGQAPRLLIYKVSNRFSGVPDRFSGSGSGTDFTLKISRVEAEDVGVYYCGQGTQVPYTFGQGTKLEIKRTVAAPSVFIFPPSDEQLKSGTASVVCLLNNFYPREAKVQWKVDNALQSGNSQESVTEQDSKDSTYSLSSTLTLSKADYEKHKVYACEVTHQGLSSPVTKSFNRGEC | 0.22 |
| GLS3000 G91T one-arm antibody (antibody, human IgG1, kappa, L234A L235A, N297A, name in Kabat numbering) heavy: QVQLVESGGGVVQPGRSLRLSCAASGFTFSNAWMHWVRQAPGKGLEWVAQIKAKSNNYATYYAESVKGRFTISRDDSKNSLYLQMNSLKTEDTAVYYCRYVHYGAYYGVDAWGQGTTVTVSSASTKGPSVFPLAPSSKSTSGGTAALGCLVKDYFPEPVTVSWNSGALTSGVHTFPAVLQSSGLYSLSSVVTVPSSSLGTQTYICNVNHKPSNTKVDKKVEPKSCDKTHTCPPCPAPEAAGGPSVFLFPPKPKDTLMISRTPEVTCVVVDVSHEDPEVKFNWYVDGVEVHNAKTKPREEQYASTYRVVSVLTVLHQDWLNGKEYKCKVSNKALPAPIEKTISKAKGQPREPQVYTLPPSRCELTKNQVSLSCAVKGFYPSDIAVEWESNGQPENNYKTTPPVLDSDGSFFLVSKLTVDKSRWQQGNVFSCSVMHEALHNHYTQKSLSLSPDYKDDDDK EPKSSDKTHTCPPCPAPELLGGPSVFLFPPKPKDTLMISRTPEVTCVVVDVSHEDPEVKFNWYVDGVEVHNAKTKPREEQYNSTYRVVSVLTVLHQDWLNGKEYKCKVSNKALPAPIEKTISKAKGQPREPQVCTLPPSRDELTKNQVSLWCLVKGFYPSDIAVEWESNGQPENNYKTTPPVLDSDGSFFLYSKLTVDKSRWQQGNVFSCSVMHEALHNRYTQKSLSLSP light: DIVMTQSPLSLPVTPGEPASISCRSSQSLVHSNRNTYLHWYQQKPGQAPRLLIYKVSNRFSGVPDRFSGSGSGTDFTLKISRVEAEDVGVYYCGQTTQVPYTFGQGTKLEIKRTVAAPSVFIFPPSDEQLKSGTASVVCLLNNFYPREAKVQWKVDNALQSGNSQESVTEQDSKDSTYSLSSTLTLSKADYEKHKVYACEVTHQGLSSPVTKSFNRGEC | 0.26 |

More lines, now with the values ahead:

| ratio of amount bound vs unaltered GLS3000 | Binder |
| --- | --- |
| 0.27 | GLS3000 G91P one-arm antibody (antibody, human IgG1, kappa, L234A L235A, N297A, name in Kabat numbering) heavy: QVQLVESGGGVVQPGRSLRLSCAASGFTFSNAWMHWVRQAPGKGLEWVAQIKAKSNNYATYYAESVKGRFTISRDDSKNSLYLQMNSLKTEDTAVYYCRYVHYGAYYGVDAWGQGTTVTVSSASTKGPSVFPLAPSSKSTSGGTAALGCLVKDYFPEPVTVSWNSGALTSGVHTFPAVLQSSGLYSLSSVVTVPSSSLGTQTYICNVNHKPSNTKVDKKVEPKSCDKTHTCPPCPAPEAAGGPSVFLFPPKPKDTLMISRTPEVTCVVVDVSHEDPEVKFNWYVDGVEVHNAKTKPREEQYASTYRVVSVLTVLHQDWLNGKEYKCKVSNKALPAPIEKTISKAKGQPREPQVYTLPPSRCELTKNQVSLSCAVKGFYPSDIAVEWESNGQPENNYKTTPPVLDSDGSFFLVSKLTVDKSRWQQGNVFSCSVMHEALHNHYTQKSLSLSPDYKDDDDK EPKSSDKTHTCPPCPAPELLGGPSVFLFPPKPKDTLMISRTPEVTCVVVDVSHEDPEVKFNWYVDGVEVHNAKTKPREEQYNSTYRVVSVLTVLHQDWLNGKEYKCKVSNKALPAPIEKTISKAKGQPREPQVCTLPPSRDELTKNQVSLWCLVKGFYPSDIAVEWESNGQPENNYKTTPPVLDSDGSFFLYSKLTVDKSRWQQGNVFSCSVMHEALHNRYTQKSLSLSP light: DIVMTQSPLSLPVTPGEPASISCRSSQSLVHSNRNTYLHWYQQKPGQAPRLLIYKVSNRFSGVPDRFSGSGSGTDFTLKISRVEAEDVGVYYCGQPTQVPYTFGQGTKLEIKRTVAAPSVFIFPPSDEQLKSGTASVVCLLNNFYPREAKVQWKVDNALQSGNSQESVTEQDSKDSTYSLSSTLTLSKADYEKHKVYACEVTHQGLSSPVTKSFNRGEC |
| 0.26 | GLS3000 G91S one-arm antibody (antibody, human IgG1, kappa, L234A L235A, N297A, name in Kabat numbering) heavy: QVQLVESGGGVVQPGRSLRLSCAASGFTFSNAWMHWVRQAPGKGLEWVAQIKAKSNNYATYYAESVKGRFTISRDDSKNSLYLQMNSLKTEDTAVYYCRYVHYGAYYGVDAWGQGTTVTVSSASTKGPSVFPLAPSSKSTSGGTAALGCLVKDYFPEPVTVSWNSGALTSGVHTFPAVLQSSGLYSLSSVVTVPSSSLGTQTYICNVNHKPSNTKVDKKVEPKSCDKTHTCPPCPAPEAAGGPSVFLFPPKPKDTLMISRTPEVTCVVVDVSHEDPEVKFNWYVDGVEVHNAKTKPREEQYASTYRVVSVLTVLHQDWLNGKEYKCKVSNKALPAPIEKTISKAKGQPREPQVYTLPPSRCELTKNQVSLSCAVKGFYPSDIAVEWESNGQPENNYKTTPPVLDSDGSFFLVSKLTVDKSRWQQGNVFSCSVMHEALHNHYTQKSLSLSPDYKDDDDK EPKSSDKTHTCPPCPAPELLGGPSVFLFPPKPKDTLMISRTPEVTCVVVDVSHEDPEVKFNWYVDGVEVHNAKTKPREEQYNSTYRVVSVLTVLHQDWLNGKEYKCKVSNKALPAPIEKTISKAKGQPREPQVCTLPPSRDELTKNQVSLWCLVKGFYPSDIAVEWESNGQPENNYKTTPPVLDSDGSFFLYSKLTVDKSRWQQGNVFSCSVMHEALHNRYTQKSLSLSP light: DIVMTQSPLSLPVTPGEPASISCRSSQSLVHSNRNTYLHWYQQKPGQAPRLLIYKVSNRFSGVPDRFSGSGSGTDFTLKISRVEAEDVGVYYCGQSTQVPYTFGQGTKLEIKRTVAAPSVFIFPPSDEQLKSGTASVVCLLNNFYPREAKVQWKVDNALQSGNSQESVTEQDSKDSTYSLSSTLTLSKADYEKHKVYACEVTHQGLSSPVTKSFNRGEC |
